In patent publication US20140223606, “COMPOSITIONS AND METHODS COMPRISING SEQUENCES HAVING MEGANUCLEASE ACTIVITY” (PIONEER HI BRED INTERNATIONAL INC, published 2014):
Residue numbers refer to the chain shown, from its start.

Columns and labels:
Assay in all cases: cell_activity; yeast 30 C; 22 C: 4
Conditions in all cases: tags: NLS, 6xHis
LIG3-4(B78) = target: T1, LIG3-4(B78) (artificial)
T1 chain: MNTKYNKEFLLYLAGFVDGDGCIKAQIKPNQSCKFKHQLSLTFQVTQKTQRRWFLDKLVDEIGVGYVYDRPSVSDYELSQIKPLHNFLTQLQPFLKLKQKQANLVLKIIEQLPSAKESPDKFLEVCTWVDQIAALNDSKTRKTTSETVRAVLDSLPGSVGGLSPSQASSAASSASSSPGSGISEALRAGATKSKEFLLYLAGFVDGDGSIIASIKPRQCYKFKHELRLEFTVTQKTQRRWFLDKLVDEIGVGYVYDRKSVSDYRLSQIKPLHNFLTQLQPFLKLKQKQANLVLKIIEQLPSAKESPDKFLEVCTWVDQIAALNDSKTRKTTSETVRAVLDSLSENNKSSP
Experimental: (§1) A 3 mL culture of selective media (MP Biomedical) was inoculated with a single colony of the yeast screening strain and grown at 30° C. overnight. On the following day, a 50 ml YPD culture (MP Biomedical) was started with 2 ml of the overnight culture and grown at 30° C. overnight. On the following day, the cells were harvested by centrifugation at 4000 rpm. The cells were resuspended in 100 ml ice cold water and centrifuged again. The cells were then washed in 1.2 M sorbitol, followed by treatment with 2 ml of 10 mM Tris pH 8.0, 1 mM EDTA, 100 mM Lithium acetate, 10 mM DTT, 0.6M sorbitol for 30 minutes at 30° C. with shaking. The cells were recovered by centrifugation, washed in 40 ml 1.2M sorbitol and finally resuspended in 250 microliters of 1.2M sorbitol. 50 microliter aliquots were transferred to test tubes on ice. Up to 5 microliters of DNA (100-500 nanograms) were added. The suspension was transferred to a 0.2 cm electroporation cuvette, on ice. Electroporation was performed with a pulse charge at 1.5 kV, 200 ohms, 25 microF (pulse time of 5 milliseconds). 1 mL YPD media (MP Biomedical) was added and the cells were allowed to recover at 30° C. for 1-2 hr. The cells were centrifuged, resuspended in 100 uL 1M sorbitol and plated on selective media lacking leucine and containing 2% galactose. The resulting yeast colonies were incubated at various temperatures ranging from 22 to 37 degrees Celsius for 7-10 days. I-CreI and meganucleases derived from it have maximal activity at or above 37 degrees Celsius. Screening was performed at a range of temperatures from 22 to 37 degrees in order to observe increases in activity at lower temperatures which are relevant to certain biological systems (eg. plant cells, plant cell cultures, etc). At that time the red/white sectoring phenotype, indicative of meganuclease activity was observed. Colonies with increased white sectoring over the parental meganuclease (indicating colonies expressing a meganuclease with increased meganuclease activity), also referred to as “hits” and sometimes completely white, were isolated for further analysis.

LIG3-4(B76) = target: T2, LIG3-4(B76) (artificial)
T2 chain: T1 chain with Q50K, P71G, N345K, N346K
Experimental: as §1

LIG3-4(B70) = target: T3, LIG3-4(B70) (artificial)
T3 chain: T1 chain with Q50K, P71K, K258P, N345K, N346K
Experimental: as §1

LIG3-4(B75) = target: T4, LIG3-4(B75) (artificial)
T4 chain: T1 chain with Q50K, N345K, N346K
Experimental: as §1

LIG3-4(B73) = target: T5, LIG3-4(B73) (artificial)
T5 chain: T1 chain with P71K, N345K, N346K
Experimental: as §1

Measured: activity

B1: LIG3-4 recognition site (dsDNA)
DNA 1: ATATACCTCACACGTACGCGTA
DNA 2: TACGCGTACGTGTGAGGTATAT
4 score 0-4: all assays above
